Test results published in paper PMC9972960.

Key:
[1] = target: purified vaccine protein with HA from influenza A/PR/8/1934 (H1N1), without the C-terminal trimerization domain (influenza A/PR/8/1934 (H1N1)) (UniProt P03452); assay: native gel or EMSA
[2] = target: purified vaccine protein with HA from influenza A/PR/8/1934 (H1N1), without the C-terminal trimerization domain (influenza A/PR/8/1934 (H1N1)) (UniProt P03452); assay: SEC

With “purified vaccine protein with HA from influenza A/PR/8/1934 (H1N1), without the C-terminal trimerization domain (from UniProt P03452 18-541)” as the substance, how does the stoichiometry N [1] read?
The stoichiometry N was 3.

What about the stoichiometry N [2] of the same substance?
Its stoichiometry N is 3.
